Data published in patent US20250339501A1, “COMPOSITIONS AND METHODS FOR TREATING METABOLIC DISEASE” (The Regents of the University of California, priority 2021, published 2025).

Experiments:
mitochondrial complex II = experiment: Complex II activity of isolated liver mitochondria from treated HFD-fed mice; format: in vivo, mouse
HepG2 cells [1] = experiment: Reactive oxygen species in HepG2 cells; format: cell-based, human; settings: baseline and TNFα-induced
Text: A wide variety of mechanisms activate the JNK pathway. […] Moreover, ASK1 is activated by various stresses, including oxidative stress, ER stress, calcium overload, and receptor-mediated inflammatory signals such as TNFα and lipopolysaccharide (LPS) (26,27). rDj1 administration suppressed both baseline and TNFα-induced ROS levels in HepG2 cells, which may contribute to reducing liver inflammation (FIG. 6F).

JNK = JNK phosphorylation immunoblot in liver of HFD-fed mice; format: in vivo, mouse
Text: As described above, Dj1 administration stimulates AMPK phosphorylation in the liver cells. However, elevated AMPK phosphorylation in vivo was not observed (data not shown). Numerous studies have reported that the c-Jun N terminal kinase (JNK) is critical to the development of steatosis and chronic liver injury in NAFLD (22-25). […] However, not all MAPK pathways were activated. For example, phosphorylation of p42 was not altered by tDj1 treatment (FIG. 6O). Both rDj1 and tDj1 suppressed TNFα and Anisomycin-induced JNK (p54 and p46) phosphorylation in human HepG2 and mouse AML12 liver cells, respectively (FIGS. 6C-6D).

mitochondrial complex I = experiment: Complex I activity of isolated liver mitochondria from treated HFD-fed mice; format: in vivo, mouse
HepG2 cells [2] = experiment: Fatty acid oxidation and lipid content in HepG2 cells; format: cell-based, human
Protocol: Mouse myoblast cells (C2C12) were maintained in high glucose DMEM/high, 10% fetal bovine serum with penicillin/streptomycin. pRK5-Dj1-HA plasmid was purchased from Addgene (#29396). Seeded cells were cultured in 6-well plates for 24 hours prior to transfection. Transfections were performed using Lipofectamine 2000 and PLUS reagent according to manufacturer instructions (Invitrogen, Carlsbad, CA). Human HepG2 cells were cultured in DMEM/low media containing 10% fetal bovine serum with penicillin/streptomycin. Mouse AML12 cells were maintained in DMEM/F12, ITS supplement (Gibco, USA), 40 ng/ml dexamethasone, and 10% fetal bovine serum with penicillin/streptomycin. For in vitro experiments, HepG2 cells were treated with or without recombinant human Dj1 protein (Novus, NBC1-18334) in serum-free media containing 25 mM glucose, 200 μM palmitic acid, and 0.25% bovine serum albumin for an indicated time.
AMPK signaling is vital for lipid metabolism in the liver (19). […] These findings indicate that Dj1 could enhance lipid metabolism and ameliorate HFD-induced hepatic steatosis. rDj1 was tail-vein injected into mice fed with a chow diet (NC) or high-fat diet (HFD) daily for 5 days. […] Although body weights and fasting blood glucose levels of HFD-fed mice were unchanged during the rDj1 administration, rDj1 indeed enhanced glucose homeostasis and insulin action, as evidenced by improving glucose tolerance tests and insulin tolerance tests, respectively (FIGS. 4K-4M, 4U-4Z).

[3] = Intravital imaging of IRDye 800CW-labeled Dj1 after tail-vein injection; format: in vivo, mouse; settings: WT mice
Protocol: Recombinant mouse Dj1 protein (NBP2-59523, Novus) were labeled with near-infrared dyes using IRDye 800CW protein labeling kit-Low MW (Li-COR Biosciences) as described in the manufacturer's instructions. 10 μg of labeled Dj1 protein was injected into wild-type C57BL/6J mouse through the tail vein. The mice were imaged at the indicated time using an IVIS Spectrum (PerkinElmer). For tissue analysis, recipient mice were euthanized by cervical dislocation, and tissues were then dissected and imaged. Fluorescence was detected using excitation and emission filters at 745 nm and 800 nm, respectively.
Myokines contribute to whole-body metabolism by directly signaling to distant organs (15-18). To determine which organs Dj1 targets, WT mice were tail-vein injected with a recombinant Dj1 (rDj1) protein labeled with the near-infrared fluorescent dye IRDye 800CW, and the fluorescent signals were tracked using an optical imaging system (FIGS. 3I, 3J). A robust fluorescent signal could be detected within 5 minutes post-injection. […] Considering that the reagents injected through tail-vein often nonspecifically target the liver, fluorescent-labeled rDj1 was used to determine whether Dj1 could bind to the plasma membrane of liver cells. rDj1 was labeled with Alex 488 and added into the medium of mouse liver cells (AML12 cells) at the indicated time.

HFD-fed mice = experiment: Indirect calorimetry in HFD-fed mice; format: in vivo, mouse
Protocol: Elevated AMPK signaling and reduced lipid content in the liver led to the hypothesis that rDj1 might activate the whole-body energy metabolism of mouse. Therefore, the metabolic rate was determined in HFD-fed mice by indirect calorimetry.

B1: rDj1: full-length recombinant Dj1 protein; mouse protein (Novus, NBP2-59523) injected in mice, human protein used in HepG2 cells (protein, UniProt Q99LX0 1-189, looked up)
chain: MASKRALVILAKGAEEMETVIPVDVMRRAGIKVTVAGLAGKDPVQCSRDVMICPDTSLEDAKTQGPYDVVVLPGGNLGAQNLSESPMVKEILKEQESRKGLIAAICAGPTALLAHEVGFGCKVTTHPLAKDKMMNGSHYSYSESRVEKDGLILTSRGPGTSFEFALAIVEALVGKDMANQVKAPLVLKD
modifications: full-length
notes: full-length recombinant Dj1 protein; mouse protein (Novus, NBP2-59523) injected in mice, human protein used in HepG2 cells
- mitochondrial complex II activity (mitochondrial complex II): Enhanced
- ROS levels (HepG2 cells [1]): suppressed
- JNK (p46 subunit) phosphorylation (JNK): significantly reduced
- mitochondrial complex I activity (mitochondrial complex I): Enhanced
- Oil Red O staining (neutral lipids) (HepG2 cells [2]): reduced
- fatty acid oxidation (HepG2 cells [2]): significantly promoted
- triacylglycerol (TG) levels (HepG2 cells [2]): reduced
- organs in which most fluorescent signals accumulated ([3]; 4 hours post-injection, tail-vein): accumulated in the liver, kidney, and urine
- time until robust fluorescent signal detected post-injection ([3]; IRDye 800CW-labeled rDj1, tail-vein): ≤ 5 min
- energy expenditure (EE) (HFD-fed mice): elevated
- oxygen consumption (VO2) (HFD-fed mice): elevated
- respiratory exchange ratio (RER) (HFD-fed mice): reducing
